Laboratory results taken from patent US20220380464A1 (Genmab, published 2022).

B1: UniTE-huCD3-H1L1-LT41K (antibody, V domains shown)
VH: EVKLVESGGGLVQPGGSLRLSCAASGFTFNTYAMNWVRQAPGKGLEWVARIRSKYNNYATYYADSVKDRFTISRDDSKSSLYLQMNNLKTEDTAMYYCVRHGNFGNSYVSWFAYWGQGTLVTVSS
VL: not shown
notes: also called UniTE-huCD3-H1L1-LT41K (WT); UniTE-huCD3-H1L1-T41K
B2: IgG1-huCD3-Y32A-FEAL (antibody, V domains shown)
VH: EVKLVESGGGLVQPGGSLRLSCAASGFTFNTAAMNWVRQAPGKGLEWVARIRSKYNNYATYYADSVKDRFTISRDDSKSSLYLQMNNLKTEDTAMYYCVRHGNFGNSYVSWFAYWGQGTLVTVSS
VL: not shown
B3: IgG1-huCD3-H101K-FEAL (antibody, V domains shown)
VH: EVKLVESGGGLVQPGGSLRLSCAASGFTFNTYAMNWVRQAPGKGLEWVARIRSKYNNYATYYADSVKDRFTISRDDSKSSLYLQMNNLKTEDTAMYYCVRKGNFGNSYVSWFAYWGQGTLVTVSS
VL: not shown
B4: UniTE-huCD3-H1L1-H101G-LT41K (antibody, V domains shown)
VH: EVKLVESGGGLVQPGGSLRLSCAASGFTFNTYAMNWVRQAPGKGLEWVARIRSKYNNYATYYADSVKDRFTISRDDSKSSLYLQMNNLKTEDTAMYYCVRGGNFGNSYVSWFAYWGQGTLVTVSS
VL: not shown
notes: Monovalent UniBody-TE format
B5: UniTE-huCD3-H1L1-Y32A-LT41K (antibody, V domains shown)
VH: EVKLVESGGGLVQPGGSLRLSCAASGFTFNTAAMNWVRQAPGKGLEWVARIRSKYNNYATYYADSVKDRFTISRDDSKSSLYLQMNNLKTEDTAMYYCVRHGNFGNSYVSWFAYWGQGTLVTVSS
VL: not shown
notes: Monovalent UniBody-TE format
B6: IgG1-huCD3-T31M-FEAL (antibody, V domains shown)
VH: EVKLVESGGGLVQPGGSLRLSCAASGFTFNMYAMNWVRQAPGKGLEWVARIRSKYNNYATYYADSVKDRFTISRDDSKSSLYLQMNNLKTEDTAMYYCVRHGNFGNSYVSWFAYWGQGTLVTVSS
VL: not shown
B7: IgG1-huCD3-Y114R-FEAL (antibody, V domains shown)
VH: EVKLVESGGGLVQPGGSLRLSCAASGFTFNTYAMNWVRQAPGKGLEWVARIRSKYNNYATYYADSVKDRFTISRDDSKSSLYLQMNNLKTEDTAMYYCVRHGNFGNSYVSWFARWGQGTLVTVSS
VL: not shown
B8: UniTE-huCD3-H1L1-T31M-LT41K (antibody, V domains shown)
VH: EVKLVESGGGLVQPGGSLRLSCAASGFTFNMYAMNWVRQAPGKGLEWVARIRSKYNNYATYYADSVKDRFTISRDDSKSSLYLQMNNLKTEDTAMYYCVRHGNFGNSYVSWFAYWGQGTLVTVSS
VL: not shown
notes: Monovalent UniBody-TE format
B9: UniTE-huCD3-H1L1-H101N-LT41K (antibody, V domains shown)
VH: EVKLVESGGGLVQPGGSLRLSCAASGFTFNTYAMNWVRQAPGKGLEWVARIRSKYNNYATYYADSVKDRFTISRDDSKSSLYLQMNNLKTEDTAMYYCVRNGNFGNSYVSWFAYWGQGTLVTVSS
VL: not shown
notes: Monovalent UniBody-TE format
B10: UniTE-huCD3-H1L1-T31A-LT41K (antibody, V domains shown)
VH: EVKLVESGGGLVQPGGSLRLSCAASGFTFNAYAMNWVRQAPGKGLEWVARIRSKYNNYATYYADSVKDRFTISRDDSKSSLYLQMNNLKTEDTAMYYCVRHGNFGNSYVSWFAYWGQGTLVTVSS
VL: not shown
notes: Monovalent UniBody-TE format
B11: IgG1-huCD3-T31P-FEAL (antibody, V domains shown)
VH: EVKLVESGGGLVQPGGSLRLSCAASGFTFNPYAMNWVRQAPGKGLEWVARIRSKYNNYATYYADSVKDRFTISRDDSKSSLYLQMNNLKTEDTAMYYCVRHGNFGNSYVSWFAYWGQGTLVTVSS
VL: not shown
B12: IgG1-huCD3-N57E-FEAL (antibody, V domains shown)
VH: EVKLVESGGGLVQPGGSLRLSCAASGFTFNTYAMNWVRQAPGKGLEWVARIRSKYNEYATYYADSVKDRFTISRDDSKSSLYLQMNNLKTEDTAMYYCVRHGNFGNSYVSWFAYWGQGTLVTVSS
VL: not shown
B13: UniTE-huCD3-H1L1-G105P-LT41K (antibody, V domains shown)
VH: EVKLVESGGGLVQPGGSLRLSCAASGFTFNTYAMNWVRQAPGKGLEWVARIRSKYNNYATYYADSVKDRFTISRDDSKSSLYLQMNNLKTEDTAMYYCVRHGNFPNSYVSWFAYWGQGTLVTVSS
VL: not shown
notes: Monovalent UniBody-TE format
B14: UniTE-huCD3-H1L1-Y114R-LT41K (antibody, V domains shown)
VH: EVKLVESGGGLVQPGGSLRLSCAASGFTFNTYAMNWVRQAPGKGLEWVARIRSKYNNYATYYADSVKDRFTISRDDSKSSLYLQMNNLKTEDTAMYYCVRHGNFGNSYVSWFARWGQGTLVTVSS
VL: not shown
notes: Monovalent UniBody-TE format
B15: IgG1-huCD3-S110A-FEAL (antibody, V domains shown)
VH: EVKLVESGGGLVQPGGSLRLSCAASGFTFNTYAMNWVRQAPGKGLEWVARIRSKYNNYATYYADSVKDRFTISRDDSKSSLYLQMNNLKTEDTAMYYCVRHGNFGNSYVAWFAYWGQGTLVTVSS
VL: not shown
B16: IgG1-huCD3-H101N-FEAL (antibody, V domains shown)
VH: EVKLVESGGGLVQPGGSLRLSCAASGFTFNTYAMNWVRQAPGKGLEWVARIRSKYNNYATYYADSVKDRFTISRDDSKSSLYLQMNNLKTEDTAMYYCVRNGNFGNSYVSWFAYWGQGTLVTVSS
VL: not shown
B17: IgG1-huCD3-Y114V-FEAL (antibody, V domains shown)
VH: EVKLVESGGGLVQPGGSLRLSCAASGFTFNTYAMNWVRQAPGKGLEWVARIRSKYNNYATYYADSVKDRFTISRDDSKSSLYLQMNNLKTEDTAMYYCVRHGNFGNSYVSWFAVWGQGTLVTVSS
VL: not shown
B18: UniTE-huCD3-H1L1-H101I-LT41K (antibody, V domains shown)
VH: EVKLVESGGGLVQPGGSLRLSCAASGFTFNTYAMNWVRQAPGKGLEWVARIRSKYNNYATYYADSVKDRFTISRDDSKSSLYLQMNNLKTEDTAMYYCVRIGNFGNSYVSWFAYWGQGTLVTVSS
VL: not shown
notes: Monovalent UniBody-TE format
B19: IgG1-huCD3-S110G-FEAL (antibody, V domains shown)
VH: EVKLVESGGGLVQPGGSLRLSCAASGFTFNTYAMNWVRQAPGKGLEWVARIRSKYNNYATYYADSVKDRFTISRDDSKSSLYLQMNNLKTEDTAMYYCVRHGNFGNSYVGWFAYWGQGTLVTVSS
VL: not shown
B20: IgG1-huCD3-Y114M-FEAL (antibody, V domains shown)
VH: EVKLVESGGGLVQPGGSLRLSCAASGFTFNTYAMNWVRQAPGKGLEWVARIRSKYNNYATYYADSVKDRFTISRDDSKSSLYLQMNNLKTEDTAMYYCVRHGNFGNSYVSWFAMWGQGTLVTVSS
VL: not shown
B21: UniTE-huCD3-H1L1-S110A-LT41K (antibody, V domains shown)
VH: EVKLVESGGGLVQPGGSLRLSCAASGFTFNTYAMNWVRQAPGKGLEWVARIRSKYNNYATYYADSVKDRFTISRDDSKSSLYLQMNNLKTEDTAMYYCVRHGNFGNSYVAWFAYWGQGTLVTVSS
VL: not shown
notes: Monovalent UniBody-TE format
B22: IgG1-huCD3-G105P-FEAL (antibody, V domains shown)
VH: EVKLVESGGGLVQPGGSLRLSCAASGFTFNTYAMNWVRQAPGKGLEWVARIRSKYNNYATYYADSVKDRFTISRDDSKSSLYLQMNNLKTEDTAMYYCVRHGNFPNSYVSWFAYWGQGTLVTVSS
VL: not shown
B23: UniTE-huCD3-H1L1-H101K-LT41K (antibody, V domains shown)
VH: EVKLVESGGGLVQPGGSLRLSCAASGFTFNTYAMNWVRQAPGKGLEWVARIRSKYNNYATYYADSVKDRFTISRDDSKSSLYLQMNNLKTEDTAMYYCVRKGNFGNSYVSWFAYWGQGTLVTVSS
VL: not shown
notes: Monovalent UniBody-TE format
B24: UniTE-huCD3-H1L1-N57E-LT41K (antibody, V domains shown)
VH: EVKLVESGGGLVQPGGSLRLSCAASGFTFNTYAMNWVRQAPGKGLEWVARIRSKYNEYATYYADSVKDRFTISRDDSKSSLYLQMNNLKTEDTAMYYCVRHGNFGNSYVSWFAYWGQGTLVTVSS
VL: not shown
notes: Monovalent UniBody-TE format
B25: UniTE-huCD3-H1L1-T31P-LT41K (antibody, V domains shown)
VH: EVKLVESGGGLVQPGGSLRLSCAASGFTFNPYAMNWVRQAPGKGLEWVARIRSKYNNYATYYADSVKDRFTISRDDSKSSLYLQMNNLKTEDTAMYYCVRHGNFGNSYVSWFAYWGQGTLVTVSS
VL: not shown
notes: Monovalent UniBody-TE format
B26: IgG1-huCD3-H101L-FEAL (antibody, V domains shown)
VH: EVKLVESGGGLVQPGGSLRLSCAASGFTFNTYAMNWVRQAPGKGLEWVARIRSKYNNYATYYADSVKDRFTISRDDSKSSLYLQMNNLKTEDTAMYYCVRLGNFGNSYVSWFAYWGQGTLVTVSS
VL: not shown
B27: UniTE-huCD3-H1L1-S110G-LT41K (antibody, V domains shown)
VH: EVKLVESGGGLVQPGGSLRLSCAASGFTFNTYAMNWVRQAPGKGLEWVARIRSKYNNYATYYADSVKDRFTISRDDSKSSLYLQMNNLKTEDTAMYYCVRHGNFGNSYVGWFAYWGQGTLVTVSS
VL: not shown
notes: Monovalent UniBody-TE format

Experiments:
CD3ε27-GSKa [1] = target: T1, CD3ε27-GSKa (human); experiment: BLI (Octet HTX), UniTE antibody on anti-human Fc sensors, CD3ε27-GSKa in solution, 1:1 fit
T1 construct: also called Mature CD3ε27-GSKa
T1 sequence (chain, as listed by the source limits assumed): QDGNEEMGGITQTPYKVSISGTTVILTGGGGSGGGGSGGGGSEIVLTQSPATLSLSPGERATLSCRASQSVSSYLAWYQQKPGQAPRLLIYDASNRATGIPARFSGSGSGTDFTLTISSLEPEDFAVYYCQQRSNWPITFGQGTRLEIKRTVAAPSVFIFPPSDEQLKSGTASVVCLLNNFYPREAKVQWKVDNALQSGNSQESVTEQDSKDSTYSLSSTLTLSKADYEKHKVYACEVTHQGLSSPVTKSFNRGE
Experimental: (§1) Experiments were carried out while shaking at 1000 rpm and at 30° C.

CD3ε27-GSKa [2] = target: T1, CD3ε27-GSKa; experiment: BLI (Octet), summary table repeating Table 4
Experimental: as §1

[3] = target: T2, human CD3 on human T cells (human, UniProt P07766 23-207); experiment: flow cytometry on isolated human T cells, PE anti-human IgG detection
T2 construct: Natural CD3/TCR complex on T cells isolated from human donor buffy coats; The other chains of the complex (CD3γ, CD3δ, CD3ζ, polyclonal TCR) are also present on the cells
T2 sequence (P07766 23-207 limits assumed): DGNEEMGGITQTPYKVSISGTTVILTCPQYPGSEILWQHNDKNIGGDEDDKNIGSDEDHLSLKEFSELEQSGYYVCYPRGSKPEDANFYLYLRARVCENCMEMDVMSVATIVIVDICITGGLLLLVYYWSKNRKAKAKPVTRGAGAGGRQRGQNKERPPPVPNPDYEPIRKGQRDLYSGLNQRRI
Experimental: T cells were Isolated from a buffy coat fraction of anti-coagulated human donor blood samples and resuspended in PBS/0.1% BSA/0.02% azide at 1.8×10E6 cells/mL. 50 μL of T cell suspension and 50 μL of the antibody dilutions were combined in a 96 well plate on ice, Incubated for 30 min at 4° C. and washed twice with PBS/0.1% BSA/0.02% azide. […] The cells were resuspended in 120 μL PBS/0.1% BSA/0.02% azide and PE geometric Mean Fluorescence Intensity was measured. Binding curves were analyzed using non-linear regression (sigmoidal dose-response with variable slope) using GraphPad Prism V5.04 software (GraphPad Software, San Diego, Calif., USA) and apparent affinity (KD) was derived from the concentration at half-maximal binding.

CD3ε27-GSKa [4] = target: T1, CD3ε27-GSKa; experiment: BLI (Octet HTX), IgG on anti-human Fc sensors, CD3ε27-GSKa 1000-1.4 nM in solution, 1:1 fit, average
Experimental: as §1
Data was analyzed with ForteBio Data Analysis Software v8.1, using the 1:1 model and a global full fit with 1000 s association time and 100 s dissociation time. […] Data traces with a response <0.05 nm were excluded from analysis.

Binder	Ka (CD3ε27-GSKa [1]) [M⁻¹]	Kd (CD3ε27-GSKa [1]) [nM]	Kd (CD3ε27-GSKa [2]) [nM]	Tcell binding average at 5000ng/ml (Geometric MFI) [3] [Geometric MFI]	Kd (CD3ε27-GSKa [4]) [nM]	pKD (CD3ε27-GSKa [4])
B1	3e+07	34	34	13200		
B2					105	7
B3					120	6.9
B4	1e+06	970	970	492		
B5				719		
B6					99	7
B7					46	7.3
B8	5.1e+06	200	200	1920		
B9	5.1e+06	200	200	848		
B10				10200		
B11					42	7.4
B12					91	7
B13	2.8e+07	35	35	10500		
B14				6200		
B15					72	7.1
B16					45	7.3
B17					29	7.5
B18	4.6e+06	220	220			
B19					153	6.8
B20					42	7.4
B21	3.1e+06	320	320	1660		
B22					5	8.3
B23				1320		
B24	4.1e+07	24	24	8490		
B25	2e+07	49	49	4290		
B26					107	7
B27	1.6e+07	61	61	949		
